Measured values from article PMC3047542, “Structure of HsdS Subunit from Thermoanaerobacter tengcongensis Sheds Lights on Mechanism of Dynamic Opening and Closing of Type I Methyltransferase” (PLoS ONE, 2011).

Target: T1, TTE-HsdS (wild type), specificity subunit of the type I methyltransferase from Thermoanaerobacter … (Thermoanaerobacter tengcongensis, UniProt Q8R9Q6 1-398)
T1 construct: HsdS specificity subunit of Thermoanaerobacter tengcongensis, ORF TTE1545, wild type; 398 amino acids (Met1-Leu398), MW 46.5 kDa; Cloned into site 1 of pET-DUET (with N-terminal His tag); source: E. coli BL21 (DE3), co-expressed with TTE-HsdM (wild type or mutant) from pET-DUET; not shown: His tag, N-terminal, kept
T1 sequence (looked up): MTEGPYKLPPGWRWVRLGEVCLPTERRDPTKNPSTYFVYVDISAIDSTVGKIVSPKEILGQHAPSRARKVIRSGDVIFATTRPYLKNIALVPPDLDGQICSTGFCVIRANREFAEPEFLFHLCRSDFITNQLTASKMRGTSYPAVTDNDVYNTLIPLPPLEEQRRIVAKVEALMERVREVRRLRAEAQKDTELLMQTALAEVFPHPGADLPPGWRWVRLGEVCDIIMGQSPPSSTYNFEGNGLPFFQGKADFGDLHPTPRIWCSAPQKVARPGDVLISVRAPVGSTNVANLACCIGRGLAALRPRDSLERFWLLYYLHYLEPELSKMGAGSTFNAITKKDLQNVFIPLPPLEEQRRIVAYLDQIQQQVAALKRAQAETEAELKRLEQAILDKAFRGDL
Test: AUC; analytical ultracentrifugation of the co-purified wild-type TTE-HsdS/TTE-HsdM complex; molecular weight 165 kDa
Conditions: both partners purified

B1: TTE-HsdM (wild type), modification subunit of the type I methyltransferase from Thermoanaerobacter tengcongensis (natural protein, UniProt Q8R9Q4 1-507, looked up)
chain: MNGPQTRESLANEIWRACDIMRRDNNCTGIMEYVEHLAWLLFLRFLDAQEEEWEAQAQIAGRPYTPIIDSEYRWRHWATKDWPADELLAFVHGRLIPYLRSLGGDPLRETIRSLFSERNVIVCASGYNLKDVIQIVNEINFHSQDDIFTVSQVYEELLRRLGNENRLAGEFYTPRPVVRFVVELVDPQIGEAVYDPACGTCGFLVEAYLWMKQKERTIEDHRILQERTFFGQEKKPVPAFLGLVNMMLHGVTVPRVMRRNTLEENIRNVSERFDVVVTNPPFGGTEGRHIQQNFPIQSNATELLFLQHIMKKLKPRDGARCGMVVPEGTLFRGGAFAEVKRDLLEQFNLHTVVSLPPGTFAPYSDVKTALIFFERPGPTKEIWYYELPLPEGLKKFSKGNPIQDEHFEEARKLWRGWDAYRKGLGPVEACLSERSWIVPVEEVKKRGYDLTARNPNRSGGEELPSPVEIVAGLLEKEREILSIMEELSELLENEKGNSSRKNDEEEE
notes: HsdM modification subunit of Thermoanaerobacter tengcongensis, ORF TTE1547, wild type; MW 58.5 kDa; Cloning site 2 of pET-DUET, without tag; Two copies in the M2S1 complex; Expressed alone it was insoluble
- stoichiometry N: 2 HsdM per HsdS
